# Assay results as given in the supplement of paper PMC12042874.
# ± gives the uncertainty stated by the source.
# Experiment: amyloid nucleation score (Sup35N fusion, yeast selection) (log enrichment); library NNK1; higher = more nucleation; inactive = no reads after selection
# Method in brief: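 Psi-negative yeast expressed Sup35N fused to peptides of 20 random codons. They were induced 24 hours with 100 μM copper sulfate, grown 7 days at 30°C without adenine and uracil, and their plasmid inserts from input and output were Illumina-sequenced. The nucleation score is the DiMSum log enrichment of output over input reads, centred on the mode score of non-aggregating sequences. Sequences with under 100 input reads were excluded.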
row,Substance,amyloid nucleation score
1,IEWVPTT,inactive
2,CLTGIGKLPVGSGPV,0.198 ± 0.77
3,WQRNDQWMVVQVITVSV,0.176 ± 0.47
4,PWNLIISSYASYYTCKVLVS,-0.563 ± 1.1
5,CMAVWEKIENGVHLLHRSAD,2.76 ± 0.12
6,CSLILALPN,0.951 ± 0.6
7,WVKCLPGGLQAFWYS,-0.369 ± 1
8,SMRCKSYGCC,0.3 ± 0.59
9,SSYFTKM,0.548 ± 0.34
10,LPALKCELGAAMLSAQLMAR,-0.18 ± 0.24
11,GERGQFTILISYMALRDRLM,2.45 ± 0.13
12,DVSPLVFVC,-0.407 ± 0.74
13,CVNQWILVPGRAF,inactive
14,PNAVCGQWFEDQL,-0.269 ± 0.94
15,KFVVMGWGYLTIRVVSVTDK,1.92 ± 0.64
16,KLSVGYRFWVLDSDFIVDDY,0.16 ± 0.23
17,LPNRCASIVRQIVQVWCVS,2.41 ± 0.12
18,RSGIILLVGVS,-0.655 ± 0.68
19,RGNVCCTMIC,6.09 ± 0.074
20,VRISVCNYWFMVVGMAF,0.251 ± 0.31
21,IVVSQPVFEGYIWLLNVAGG,4.42 ± 0.094
22,ELGLSINFQIANFAACQGYI,1.99 ± 0.24
23,MREGFTLFVDKDCNAGTYTW,inactive
24,EHGNVACRWDTHISLVWCHF,7.304 ± 0.057
25,GKHLTRNAWGRLSLVTDCVR,0.486 ± 0.5

row,Substance,amyloid nucleation score
1,TSVSKLQHWIYFTFY,-0.834 ± 1.4
2,YSRGCTFYAKGELRDNGSYY,-0.168 ± 0.48
3,FGIPAHNLLCYGCFLNWILV,inactive
4,MIKYYYGSGTLS,-0.429 ± 0.34
5,TRALSFN,-0.873 ± 1.6
6,VRTSVCCTRALAMLRSLWVT,-0.625 ± 0.73
7,FLSRGSVWVVGSTFECHYEW,0.205 ± 0.56
8,LYGNT,1.37 ± 0.38
9,ITVSKKATWCRQRGMRGLRG,1.65 ± 0.59
10,RTRLFHDLLLCAAHIRLRIR,0.133 ± 0.38
11,LAAVQTDMFISTLLECLDDK,1.08 ± 0.35
12,MFCFKGHQSRDLRTFDYIW,0.1 ± 0.27
13,CRSFYIIEIVKMGPNGRKGV,-1 ± 0.78
14,LGFLRLFKKYVFYACCDVYS,-0.175 ± 0.84
15,ENLRHTLHKFITI,0.262 ± 0.62
16,AMCLV,-0.373 ± 0.88
17,WSLQKRG,inactive
18,GIISFANRQSF,7.944 ± 0.044
19,ALRKVYCSFIHNIWACSWAI,inactive
20,HFAGCNSIDLQCNIRCKNIR,5.469 ± 0.048
21,EMVLLNATFYYAYCHSNRLR,0.227 ± 0.27
22,TGRCR,inactive
23,VCRRVHGSMP,-0.236 ± 1.2
24,IVWYELIESNVLKSKGCVVN,-0.322 ± 1.1
25,CVRRLRVLCTFLLVTLLYCI,1.67 ± 0.29

row,Substance,amyloid nucleation score
1,SVNRCGVYFTEGFFSLRWS,1.13 ± 0.25
2,ILLGYGQSMSRHIPTDKNEL,-0.79 ± 0.74
3,AMHNSSDGCRFDTYSVCVYW,2.68 ± 0.21
4,ECDSAFRSQGGGLACLFRMK,-0.171 ± 0.42
5,SNLLGSMFLLCHQIKHRPEI,-0.764 ± 0.34
6,LDLAGGKG,1.74 ± 0.14
7,RWGDHKQC,0.041 ± 0.41
8,QNLYVLDSYSLLNNFVSCII,-0.623 ± 0.35
9,IQPLIWANYFVIGARV,3.66 ± 0.1
10,IRIFNKHGHGG,-0.664 ± 0.36
11,MVFSLSCFKSFTCYTYMCTA,7.15 ± 0.055
12,LCEFSPLSCGCYGRDPHVPP,-0.73 ± 1.2
13,LCDFVLNIEREVNVYSFIKL,2.34 ± 0.13
14,ILICQCLMLACGRVFSFYLV,-0.328 ± 0.57
15,ERSARGGHPMLAFYMTIPTP,-0.067 ± 1.2
16,SRFKTDYTG,-0.492 ± 0.68
17,YLCGHLMNTLYAILNVRRAL,0.888 ± 0.9
18,PIHGISFFDAYNL,-0.128 ± 1.4
19,AVCYHGFRMATAASEVCGAS,0.327 ± 0.38
20,RMALCKSVCFTFWNIF,3.69 ± 0.13
21,RMMVPYNHFYKSLWSGSTAY,0.959 ± 0.68
22,WQQGLVCQI,0.241 ± 0.37
23,YLILYPRASFKYAIILWSCF,-0.749 ± 0.42
24,WLLMSCTHCSCLKMRIHWKG,-1.1 ± 2.4
25,VLSAYSFYVSIWYNFSFIYG,0.689 ± 0.57

row,Substance,amyloid nucleation score
1,NYGAFY,-0.13 ± 0.63
2,EQLACQNVVSGCQSA,0.277 ± 0.97
3,RNNEDGRLKDRRRGLSHGQG,-0.531 ± 0.31
4,LTSFETFQNFNMAVMYAR,-0.236 ± 0.65
5,ITYINLSSSYKIPRPTHMRI,6.07 ± 0.065
6,TVLYPGPGAVS,0.155 ± 0.73
7,FIVERDTHQGMHFGLMLING,0.286 ± 0.62
8,VTYVMCFAMEMMVGRCRWGG,-0.029 ± 1.4
9,FRCLTVYCWF,7.894 ± 0.044
10,VRYSGNMLSSTSVNGIFGHE,0.067 ± 0.28
11,CECHPFHPRVLVYGRYRFNP,0.033 ± 0.38
12,AHGMYAEGVTWSALVSSRCE,2.56 ± 0.11
13,CLDVGHIFLGKVEWTGEPW,-0.375 ± 0.64
14,NWSCTYRMVVS,-0.598 ± 0.22
15,GFSILAPSKYVVNYWMHPQS,7.691 ± 0.049
16,ACYRATNMSCRRGHKLAGGF,inactive
17,LCVCGPRSVVNAREDVEGLS,0.478 ± 0.55
18,MSEENSTNIIYSIVPKSL,inactive
19,NNDINFSDLFRCGERTYVFW,2.24 ± 0.18
20,ALPREWKCMSLLFENGSGNS,inactive
21,LCFVVVTSHDRGMHVIKVET,-0.857 ± 0.51
22,IYRFGFRACVDPGLRIV,inactive
23,SGAPESYGDTNRRIVSSCFL,inactive
24,LGFAFQNVTKALNLTFAYGS,0.81 ± 0.15
25,GKFSKDKILLVSYHKAF,0.886 ± 0.39

row,Substance,amyloid nucleation score
1,TLRMGESCFKWWYQIFIQLF,0.275 ± 0.93
2,YCANQRNSVPMGRMEPHSSS,-0.2 ± 0.49
3,LCSMKMIYQKC,0.177 ± 0.33
4,HESGRRAIYS,-0.019 ± 0.29
5,LPSIYSFSSCNVVEDEGQM,-0.685 ± 1.2
6,EIWWYKVERAVLTVFREDCL,inactive
7,WFICKYNQFDHDVLFSVSTA,1.92 ± 0.68
8,VIDRTEGTYCREITTFHYYN,-0.378 ± 0.62
9,YCNLIRFKFCVNSCCMSSSL,5.64 ± 0.078
10,WFWMYGKGKESQSVVNGGGT,0.861 ± 0.53
11,TFVVELS,-1.64 ± 2.4
12,MMRGTLC,0.458 ± 0.41
13,CRLIVISTTYIIKAQKCLIG,-0.512 ± 0.33
14,CYVSS,-0.548 ± 0.53
15,SRNVVLPL,0.195 ± 0.43
16,IKWANREALLLWVELGRLRW,-0.66 ± 0.84
17,KGYYDFRGVSLMVPVMFTMS,0.048 ± 0.38
18,SVASRACW,0.139 ± 0.8
19,VLMITGVCCSHNMLVLADKR,6.609 ± 0.057
20,WKKPIQGSVW,0.295 ± 0.49
21,IRRAENLFIRYSHR,0.855 ± 0.58
22,KDSFLMGGLFFMTAAWVSPR,1.54 ± 0.27
23,TQMMDALFLSAL,0.935 ± 0.79
24,IGYCRGHAYKMRYFSVRWFV,-1.25 ± 1.7
25,FVGFDCYNSVSCCFTMRVSE,4.02 ± 0.065

row,Substance,amyloid nucleation score
1,WEPTR,0.174 ± 0.59
2,VITGYVCMDSVQFIWYVVWV,-0.638 ± 1
3,FNSYKGLIVQKYPSMTLN,0.302 ± 1
4,SFDRCCRGFAWISYGEQTAY,0.219 ± 0.53
5,YTVRLM,0.125 ± 0.61
6,YNCLYDRPFRMMSQCLNIGM,-1.59 ± 1.2
7,TSGWRYGYSSYHYRTLNGFV,-0.35 ± 0.47
8,RLKYYNYERFRLVVLCRVHG,-0.053 ± 1.1
9,PLCHWKA,-0.325 ± 0.53
10,LAEGASTL,-0.217 ± 1.1
11,ATCNNI,-0.431 ± 1.4
12,VNYFARSGASKICML,-0.366 ± 0.88
13,YWDYNNFRFFLRKLSFISRL,0.822 ± 1
14,SRGLFCWWRSTWRGVL,-1.28 ± 2.4
15,NADCAYYDERYRYSSWLYFY,-1.2 ± 1.1
16,NAGMSLRTFSLYSSWLIVPV,0.179 ± 1
17,SLRWSQSPFYFVTSIGRQGG,0.585 ± 0.55
18,EDTSMELWVSAGIRGGLPLV,-1.13 ± 0.94
19,MRWHINATLNGRLGAGLILV,-0.526 ± 0.7
20,RYTEAASICRLVLGGQGVRI,-0.155 ± 0.96
21,IGQGFNCIR,-0.083 ± 1.4
22,LLFLSMMVSASCC,1.09 ± 0.39
23,TVFFPFLTNSRGDRLRDCWM,-0.65 ± 1.1
24,YKNFKFSDDTRMFVNNVSVY,1.25 ± 0.56
25,LTMCSGICEVIRQARDHHYR,0.149 ± 0.97

row,Substance,amyloid nucleation score
1,GGSMGHPGTLMERSYNLVVA,0.951 ± 0.46
2,RHSITLFLVTVETVRACVFK,-0.714 ± 1.2
3,CIFSRNQGLIHRLEDNGH,0.685 ± 0.33
4,EKLSRAVYPRASIRVVCMLF,-0.204 ± 0.34
5,WHASNFLTSSSHKMSSNWTS,0.67 ± 0.48
6,CLCARML,0.542 ± 0.67
7,IPLGPGLPACINEGLKNPVS,-0.439 ± 0.67
8,HSVFVMVCSSCMVG,8.892 ± 0.068
9,TVMFCRQWVFNCVFFIDIVK,1.31 ± 0.1
10,VLLGSCWVFKSQKGRGPSSC,-0.51 ± 0.69
11,HSGNTLIQMCVI,-0.083 ± 0.61
12,WNIRGVMGLSNVR,-0.058 ± 0.29
13,HIAHTEPGAIWV,inactive
14,CDMNPSDYDPLCEVSHRIIS,0.561 ± 0.24
15,PRELEKFTLQKSGLHPWISL,-0.686 ± 1.4
16,MVTTWVHGYVWRANGQTLFR,1.28 ± 0.7
17,VTYSYASGDGPDSLWCT,-0.026 ± 0.84
18,VVKSSTPSSDPTTASRIWLL,-0.26 ± 0.43
19,VSCWLQISDLRAVAWPLRSF,0.588 ± 0.21
20,ENARHRCDQ,0.571 ± 0.38
21,TTFFYYSEGKIR,-0.657 ± 0.51
22,YQETPVNPEPVV,-0.01 ± 0.38
